Experimental data reported in PMC8734478 (Science (New York, N.Y.), 2021).
Ends that are not written are not given here. * marks the point of attachment. Palmitoyl = CCCCCCCCCCCCCCCC(=O)*

Target: human Hedgehog acyltransferase (HHAT) (human, UniProt Q5VTY9 1-493)
Test: cryo-EM structure

human Hedgehog acyltransferase (HHAT), sequence (Q5VTY9 whole entry): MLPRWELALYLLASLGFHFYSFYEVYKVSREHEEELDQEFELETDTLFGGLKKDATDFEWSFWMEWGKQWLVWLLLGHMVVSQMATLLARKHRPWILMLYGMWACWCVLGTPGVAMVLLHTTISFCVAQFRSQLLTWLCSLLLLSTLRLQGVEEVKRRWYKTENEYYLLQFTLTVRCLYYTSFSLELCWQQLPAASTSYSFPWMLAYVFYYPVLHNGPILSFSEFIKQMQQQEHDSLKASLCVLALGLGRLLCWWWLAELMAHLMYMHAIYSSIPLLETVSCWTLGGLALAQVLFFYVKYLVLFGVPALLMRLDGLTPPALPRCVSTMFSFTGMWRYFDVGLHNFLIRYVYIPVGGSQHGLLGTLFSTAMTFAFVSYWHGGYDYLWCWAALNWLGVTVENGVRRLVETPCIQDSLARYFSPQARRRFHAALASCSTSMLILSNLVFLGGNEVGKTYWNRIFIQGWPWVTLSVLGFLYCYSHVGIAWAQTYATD

binding result: binds
Binder: Palmitoyl-CGPGRGFGKRRH (peptide, UniProt Q15465 24-35, looked up)
